Reference: publication PMC5502268, “DNA Methylation Influences Chlorogenic Acid Biosynthesis in Lonicera japonica by Mediating LjbZIP8 to Regulate Phenylalanine Ammonia-Lyase 2 Expression”

Key:
[1] = biological target: T1, LjbZIP8 (Lonicera japonica, UniProt A0A4Y1JSE6 1-144); test: EMSA; inhibited by unlabelled probe (200x in legend; 4 pmol vs 40 fmol in Methods); 40 fmol biotin probe, 15 fmol protein, 0 or 4 pmol competitor, room temperature 20 min, Pierce LightShift kit 20148; binding buffer, salt and pH not stated; settings: protein: recombinant; tags: GST (pGEX-4T-1); chain copies: 2; blunt
T1 sequence: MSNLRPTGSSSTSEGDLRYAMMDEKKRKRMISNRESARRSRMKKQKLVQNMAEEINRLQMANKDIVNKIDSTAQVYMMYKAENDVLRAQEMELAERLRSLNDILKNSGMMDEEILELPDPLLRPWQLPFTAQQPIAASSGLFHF

[2] = biological target: T2, LjbZIP10 (Lonicera japonica, UniProt A0A4Y1JSG2 1-361); test: EMSA; 40 fmol biotin probe, 15 fmol protein, 0 or 4 pmol competitor, room temperature 20 min, Pierce LightShift kit 20148; binding buffer, salt and pH not stated; settings: protein: recombinant; tags: GST (pGEX-4T-1); chain copies: 2; blunt
T2 sequence: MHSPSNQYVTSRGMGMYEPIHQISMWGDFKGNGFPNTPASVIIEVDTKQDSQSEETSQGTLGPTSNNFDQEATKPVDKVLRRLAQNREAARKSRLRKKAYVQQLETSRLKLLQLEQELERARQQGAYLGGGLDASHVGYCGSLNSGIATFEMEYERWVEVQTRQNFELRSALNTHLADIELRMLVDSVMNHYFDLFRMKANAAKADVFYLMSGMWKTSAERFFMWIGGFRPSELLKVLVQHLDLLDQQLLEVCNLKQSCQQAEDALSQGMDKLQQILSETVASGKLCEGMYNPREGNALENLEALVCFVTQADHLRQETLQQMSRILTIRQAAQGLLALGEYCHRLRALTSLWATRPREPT

B1: LjPAL2 G-box probe (dsDNA)
DNA 1: CTCTCCTGTCCACGTGTCATCAAC
DNA 2: GTTGATGACACGTGGACAGGAGAG
B1: binds [1]; no binding [2].
